From patent US20100330090A1

Experiments:
[1] = target: recombinant human Par-1 antigen (protease activated receptor-1) (human) (UniProt P25116); assay: BLI (ForteBio Octet), Experiment 1, Fab at 1E-8 M
[2] = target: recombinant human Par-1 antigen (protease activated receptor-1) (human) (UniProt P25116); assay: BLI (ForteBio Octet), Experiment 2, Fab at 2.5E-8 M

Kd [1]	koff [1]	kon [1]	Kd [2]	koff [2]	kon [2]	Binder
1.18 nM	0.000311 s⁻¹	265000 M⁻¹ s⁻¹	–	–	–	LDS896 (Fab, V domains shown, Fab constant regions not given) VH: EVQLVQSGAEVKKPGSSVKVSCKVSGGTFSNYVFNWVRQAPGQGLEWMGVINPHSGRTRYNQKFKGRVTMTTDTSTSTAYMELRSLTSDDTAVYYCARDDGPSHWYFDVWGQGTTVTVSS VL: DIVMTQSPLSLPVTPGEPASISCRSSQSLLHRNGNNYLEWYLQKPGQSPRLLIYKISNRFSGVPDRFSGSGAGTDFTLKISRVEAEDVGVYYCFQGSHVPFTFGQGTKLEIK
–	–	–	1.13 nM	0.000293 s⁻¹	259000 M⁻¹ s⁻¹	LDW653 (Fab, V domains shown, Fab constant regions not given) VH: QVQLVQSGAEVKKPGASVKVSCKASGYTFNSYYMNWVRQAPGQGLEWMGVIDPHGGRTRYNQKFKGRVTMTTDTSTSTVYMELSSLRSEDTAVYYCARDDGPSMWYFDVWGQGTTVTVSS VL: DIVMTQSPLSLPVTPGEPASISCRSSQSLLHRNGNNYLEWYLQKPGQSPRLLIYKISNRFSGVPDRFSGSGAGTDFTLKISRVEAEDVGVYYCFQGSSVPFTFGQGTKLEIK
–	–	–	1.47 nM	0.000289 s⁻¹	196000 M⁻¹ s⁻¹	LDS900 (Fab, V domains shown, Fab constant regions not given) VH: QVQLVQSGAEVKKPGASVKVSCKASGYTFNSYYMNWVRQAPGQGLEWMGVIDPHGGRTRYNQKFKGRVTMTTDTSTSTAYMELRSLTSDDTAVYYCARDDGPSLWYFDVWGQGTTVTVSS VL: DIVMTQSPLSLPVTPGEPASISCRSSQSLLHRNGNNYLEWYLQKPGQSPRLLIYKISNRFSGVPDRFSGSGAGTDFTLKISRVEAEDVGVYYCFQGSHVPFTFGQGTKLEIK
